Results: patent US20170015742A1 (published 2017)

target: Human VEGF-A 165 (human, UniProt P15692 207-395); assay: cell-based or functional assay
Target sequence in this assay (P15692 other isoform, or with tags, fused parts or gaps limits assumed): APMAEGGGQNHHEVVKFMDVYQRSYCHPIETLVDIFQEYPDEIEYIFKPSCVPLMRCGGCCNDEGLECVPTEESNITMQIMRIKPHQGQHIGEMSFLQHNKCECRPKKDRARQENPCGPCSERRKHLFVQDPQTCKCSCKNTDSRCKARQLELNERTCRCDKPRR

| Binder | hVEGF165 IC50 (nM), HMVEC-d proliferation [nM] |
| --- | --- |
| hBEW-9E10.1 (antibody, V domains shown) VH: EIQLVQSGSELKKPGASVKVSCKASGYTFTNYGMYWVKQAPGQGLEYMGWIDTETGRPTYADDFKGRFVFSLDTSVSTAYLQISSLKAEDTAVYFCARWSGDTTGIRGPWFAYWGQGTLVTVSS VL: DIRMTQSPSSLSASVGDRVTIECLASEDIYSDLAWYQQKPGKSPKLLIYNANGLQNGVPSRFSGSGSGTDYSLTISSLQPEDVATYFCQQYNYFPGTFGQGTKLEIK | 0.064 |
| hBEW-9E10.4 (antibody, V domains shown) VH: EIQLVQSGSELKKPGASVKVSCKASGYTFTNYGMYWVKQAPGQGLEYMGWIDTETGRPTYADDFKGRFVFSLDTSVSTAYLQISSLKAEDTAVYFCARWSGDTTGIRGPWFAYWGQGTLVTVSS VL: DIRMTQSPSSLSASVGDRVTITCLASEDIYSDLAWYQQKPGKSPKLLIYNANGLQNGVPSRFSGSGSGTDYTLTISSLQPEDVATYFCQQYNYFPGTFGQGTKLEIK | 0.071 |
| hBEW-9E10.5 (antibody, V domains shown) VH: EIQLVQSGAEVKKPGSSVKVSCKASGYTFTNYGMYWVKQAPGQGLEYMGWIDTETGRPTYADDFKGRFTFTADKSTSTAYMELSSLRSEDTAVYFCARWSGDTTGIRGPWFAYWGQGTLVTVSS VL: DIRMTQSPSSLSASVGDRVTITCLASEDIYSDLAWYQQKPGKSPKLLIYNANGLQNGVPSRFSGSGSGTDYTLTISSLQPEDVATYFCQQYNYFPGTFGQGTKLEIK | 0.229 |
| hBEW-9E10.2 (antibody, V domains shown) VH: EIQLVQSGAEVKKPGSSVKVSCKASGYTFTNYGMYWVKQAPGQGLEYMGWIDTETGRPTYADDFKGRFTFTADKSTSTAYMELSSLRSEDTAVYFCARWSGDTTGIRGPWFAYWGQGTLVTVSS VL: DIRMTQSPSSLSASVGDRVTIECLASEDIYSDLAWYQQKPGKSPKLLIYNANGLQNGVPSRFSGSGSGTDYSLTISSLQPEDVATYFCQQYNYFPGTFGQGTKLEIK | 0.181 |
| hBEW-9E10.3 (antibody, V domains shown) VH: EVQLVQSGAEVKKPGSSVKVSCKASGYTFTNYGMYWVRQAPGQGLEWMGWIDTETGRPTYADDFKGRFTFTADKSTSTAYMELSSLRSEDTAVYYCARWSGDTTGIRGPWFAYWGQGTLVTVSS VL: DIRMTQSPSSLSASVGDRVTIECLASEDIYSDLAWYQQKPGKSPKLLIYNANGLQNGVPSRFSGSGSGTDYSLTISSLQPEDVATYFCQQYNYFPGTFGQGTKLEIK | 0.062 |
| hBEW-9E10.6 (antibody, V domains shown) VH: EVQLVQSGAEVKKPGSSVKVSCKASGYTFTNYGMYWVRQAPGQGLEWMGWIDTETGRPTYADDFKGRFTFTADKSTSTAYMELSSLRSEDTAVYYCARWSGDTTGIRGPWFAYWGQGTLVTVSS VL: DIRMTQSPSSLSASVGDRVTITCLASEDIYSDLAWYQQKPGKSPKLLIYNANGLQNGVPSRFSGSGSGTDYTLTISSLQPEDVATYFCQQYNYFPGTFGQGTKLEIK | 0.068 |
| hBEW-9A8.17 (antibody, V domains shown) VH: EIQLVQSGSELKKPGASVKVSCKASGYTFTNYGMYWVKQAPGQGLEYMGWINTETGKPIYADDFKGRFVFSLDTSVSTAYLQISSLKAEDTAVYYCARVDYDGSFWFAYWGQGTLVTVSS VL: ETVLTQSPATLSLSPGERATLSCRASESVSTVIHWYQQKPGQQPRLLIHGASNLESGVPARFSGSGSGTDFTLTISSLEPEDFAVYFCQQHWNDPPTFGQGTKLEIK | 0.059 |
| hBEW-9A8.20 (antibody, V domains shown) VH: EIQLVQSGAEVKKPGASVKVSCKASGYTFTNYGMYWVKQAPGQGLEYMGWINTETGKPIYADDFKGRFTFTLDTSTSTAYMELRSLRSDDTAVYYCARVDYDGSFWFAYWGQGTLVTVSS VL: ETVLTQSPATLSLSPGERATLSCRASESVSTVIHWYQQKPGQQPRLLIHGASNLESGVPARFSGSGSGTDFTLTISSLEPEDFAVYFCQQHWNDPPTFGQGTKLEIK | 0.064 |
| hBEW-9A8.21 (antibody, V domains shown) VH: EIQLVQSGAEVKKPGASVKVSCKASGYTFTNYGMYWVRQAPGQGLEWMGWINTETGKPIYADDFKGRFTFTLDTSTSTAYMELRSLRSDDTAVYYCARVDYDGSFWFAYWGQGTLVTVSS VL: ETVLTQSPATLSLSPGERATLSCRASESVSTVIHWYQQKPGQQPRLLIHGASNLESGVPARFSGSGSGTDFTLTISSLEPEDFAVYFCQQHWNDPPTFGQGTKLEIK | 0.09 |
| hBEW-5C3.6 (antibody, V domains shown) VH: EVQLVQSGAEVKKPGSSVKVSCKASGYTFTNYGVYWVRQAPGQGLEWMGWINTETGKPTYADDFKGRFTFTLDKSTSTAYMELSSLRSEDTAVYYCARARQLDWFVYWGQGTLVTVSS VL: DTQLTQSPSSLSASVGDRVTISCRARESLTTSLSWFQQKPGKQPKLLIYGASKLESGVPSRFSGSGSGTDFTLTISSLQPEDFATYFCQQSWYDPPTFGGGTKVEIK | > 2 |

target: T1, Human VEGF-A 165 (human, UniProt P15692 207-395); assay: SPR (Biacore), antibody captured by anti-human Fc, hVEGF165 as analyte
T1 construct: Recombinant human VEGF165; also called huVEGF-A165; hVEGF165
Experimental: For example, approximately 9000 RU of goat anti-human Fc specific polyclonal antibody (Thermo Fisher Scientific Inc., Rockford, Ill.) diluted in 10 mM sodium acetate (pH 4.5) is directly immobilized across a CM5 research grade biosensor chip using a standard amine coupling kit according to manufacturer's instructions and procedures at 25 μg/ml. Unreacted moieties on the biosensor surface were blocked with ethanolamine. For kinetic analysis, rate equations derived from the 1:1 Langmuir binding model were fitted simultaneously to multiple antigen injections (using global fit analysis) with the use of Scrubber 2 (BioLogic Software), Biacore Biaevaluation 4.0.1 software or Biacore T100 Evaluation software. Purified antibodies or DVD-Ig molecules were diluted in running buffer for capture across goat anti-human Fc reaction surfaces. Antibodies or DVD-Ig molecules to be captured as a ligand (1 μg/ml) were injected over reaction matrices at a flow rate of 10 μl/minute. During the assay, all measurements were referenced against the capture surface alone (i.e., with no captured antibody or DVD-Ig molecule). […] The equilibrium dissociation constant KD (M) of the reaction between antibodies and the target antigen was then calculated from the kinetic rate constants by the following formula: KD=Koff/Kₒₙ. Binding was recorded as a function of time and kinetic rate constants were calculated.
T1 sequence (P15692 other isoform, or with tags, fused parts or gaps): as the sequence (P15692 other isoform, or with tags, fused parts or gaps limits assumed) above

| Binder | Kd [nM] | kon [M⁻¹ s⁻¹] |
| --- | --- | --- |
| chBEW-3A1 (antibody, human IgG1, kappa, L234A L235A, V domains shown, also called chBEW-3A1-D10-G9) VH: QVQLEQSGAELVKPGTSVKLSCMASGYTSSSNHMNWMKQTTGQGLEWIGIINPGSGGTRYNVKFEGKATLTVDKSSSTAFMQLNSLTPEDSAVYYCARAGFPGPFSYYAMGAWGQGTSVTVSS VL: DIQMTQSPPVLSASVGDRVTLSCKASQNIHNNLDWYQQKHGEAPKLLIFYTNNLQTGIPSRFSGSGSGTDYTLTISSLQPEDVATYYCYQYNSGYTFGAGTKLELKR | 0.023 | 3.5e+07 |
| chBEW-1B10 (antibody, human IgG1, kappa, L234A L235A, V domains shown, also called chBEW-1B10-B9-C3) VH: EVQLVESGGGLVQPGRSLKLSCAASGFSFSKYDMAWFRQTPTKGLEWVASITTSGVGTYYRDSVKGRFTVSRDNAKSTLYLQMDSLRSEDTATYYCARGYGAMDAWGQGTSVTVSS VL: DIQMTQSPASLSASLEEIVTITCKASQDIDDYLSWYQQKPGKSPQLVIYAATRLADGVPSRFSGSGSGTQYSLKISRLQVDDSGIYYCLQSSSTPWTFGGGTNLELKR | 0.0094 | 5.5e+06 |
| chBEW-1B4 (antibody, human IgG1, kappa, L234A L235A, V domains shown, also called chBEW-1B4-C4) VH: QIQLVQSGPELKKPGESVKISCKASGYSFTNYGMYWVKQAPGQGLQYMGWIDTETGKPTYTDDFKGRFVFFLETSASTAYLQINNLKNEDMATYFCARWSGDTAGIRGPWFAYWGQGTLVTVSS VL: DIRMTQSPASLSASLGETVNIECLASEDIYSDLAWYQQKPGKSPQLLIYNANDLQKGVPSRFSGSGSGTQYSLKINSLQSEDVATYFCQQYNYYPGTFGAGTKLELKR | 0.011 | 1.1e+07 |
| chBED-4G10-C8 (antibody, human IgG1, kappa, L234A L235A, V domains shown) VH: QVQLQQSGTELVKPGSSVKISCKASGYTFTSNYMHWIRQQPGNGLEWIGWIYPGDGDTNYNHNFNGKATLTADKSSSTAYMQLSSLTSEDFAVYFCASSTRAIPGWFTYWGQGTLVTVSS VL: DTVLTQSPALAVSPGERVSISCWASESVSTLMHWYQQKLGQQPKLLIYGASNLESGVPARFRGSGSGTDFTLTIDPVEADDTATYFCQQSWSDPYTFGAGTKLELKR | 0.59 | 1e+07 |
| chBEW-1E3 (antibody, human IgG1, kappa, L234A L235A, V domains shown, also called chBEW-1E3-D6) VH: QIQLVQSGPELKKPGESVKISCKASGYPFTNSGMYWVKQAPGQGLQYMGWINTEAGKPTYADDFKGRFVFFLETSASTAYLQINNLKNEDMATYFCARWGYISDNSYGWFDYWGQGTLVTVSS VL: DTVLTQSPALAVSPGERVSISCRASEGVYSYMHWYQQNPGQQPKLLIYKASNLASGVPARFSGSGSGTDFTLTIDPVEADDTATYFCHQNWNDPLTFGSGTKLEIKR | 0.011 | 7.2e+06 |
